# According to patent US20240018513A1, “SYNTHETIC INTRONS FOR TARGETED GENE EXPRESSION” (FRED HUTCHINSON CANCER CENTER, priority 2020, published 2024):
# B1: intron_26: 150 nt MTERFD3 intron 1-derived synthetic intron, deletion 25to125; SEQ ID NO 58/66 (nucleic acid)
# DNA 1: GTGAGTCGCCCCCTTCCTCTGCTCCGAGAGGGAAATGGGAATTAGGGTGGTGGCAGAGCCCAAAGAGGCCTTGTAGGCCATGGTAAGGCATTTCTATGTTTTATTTTACTTTGTCTTTATCCTAAAATGCCATTGGCAAGTTTATTGCAG
# DNA 2: B1 DNA 1
# How the values were obtained:
# Assay type in all cases: cell-based
# [1] = tested on: MEL202 cells (SF3B1R625G); experiment: RT-PCR of synthetic intron excision in uveal melanoma cells; conditions: endogenous SF3B1R625G
# Description: FIGS. 9A-9H: Branchpoint manipulation and combinatorial 3′ss mutations enhance SF3B1 mutation-dependent splicing. (9A) Diagrams of modifications in each intron relative to synMTERFD3i1-150. Deletions are specified as open intervals. Branchpoints were inserted in between the indicated positions. (9B) Relative viability of K562 cells expressing the indicated constructs, measured in the full screen. Relative viability estimated as fold-change in representation of each construct, measured by full-length intron sequencing from genomic DNA, at day 8 for GCV-treated relative to untreated samples. GCV concentration, 100 ug/mL. Vector is hPGK-PuroR-P2A-HSV-TK. Data represented as mean±s.d. Standard deviation was estimated as sample proportion standard deviation. (9C) Relative viability of K562 cells expressing the indicated constructs, measured in cells expressing each construct individually. […] Relative viability measured by ATP after 11 days of treatment and normalized to PBS-treated samples. […]
# Total RNA was extracted using Direct-zol RNA Miniprep (Zymo Research). cDNA was synthesized using Superscript IV Reverse Transcriptase (Thermo Fisher Scientific) using the manufacturer's protocol. Amplicons were analyzed using agarose gel electrophoresis and quantified using ImageJ (Fiji). […]
# [2] = tested on: WT K562 cells; experiment: Mini-screen: pooled synthetic intron mini-library in HSV-TK, GCV treatment, full-length intron sequencing from genomic DNA; conditions: genotype WT (SF3B1+/+) K562; GCV 100 ug/mL; day 6; vector hPGK-PuroR-P2A-HSV-TK
# Description: (§1) Therefore, a massively parallel splicing assay was developed to map and functionally interrogate key sequence features within the synthetic intron. First, a pilot mini-library of eight synthetic introns was synthesized, seven of which were much shorter (lengths of 100-158 nt) than the parent synthetic intron (synMTERFD3i1-250), and each with one or more perturbations to potentially critical features (FIG. 2E). This mini-library was cloned into HSV-TK, introduced into WT or SF3B1-mutant K562 cells with a lentiviral vector at a low multiplicity of infection, and treated with GCV. Relative depletion of each construct was measured by high-throughput sequencing of the entire introns from genomic DNA after six days of treatment (TABLE 1).
# (§2) Each synthetic intron used in the mini-library was ordered individually as a gBlock (Integrated DNA Technologies), consisting of the desired intron flanked by homology arms for cloning (5′ arm: […] (SEQ ID NO:158); 3′ arm: […] (SEQ ID NO:159; TABLE 3). The gBlocks were then mixed in equal proportions before being cloned into hPGK-PuroR-P2A-HSV-TK using a previously published strategy for pooled cloning (Thomas, J. D. et al. RNA isoform screens uncover the essentiality and tumor-suppressor activity of ultraconserved poison exons. Nature genetics 52, 84-94 (2020), incorporated herein by reference in its entirety). This intron mix was then amplified using NEBNext High Fidelity Ready Mix (New England Biolabs) and purified using 1.8×AMPure XP SPRI beads (Beckman Coulter). The backbone for the library was amplified using Q5 polymerase (New England Biolabs). The library was transformed and amplified using Endura ElectroCompetent Cells (Lucigen, 60242-2) and large LB plates. The library was maxiprepped using a Macherey-Nagel MaxiPrep kit (Thermo Fisher Scientific, Cat 740414.10).
# (§3) WT or SF3B1-mutant K562 cells were infected with lentivirus encoding the mini-library at an MOI of 0.3 and untreated or treated with GCV (100 ug/mL) for 6 days. Genomic DNA was collected at day 6 and the resulting Illumina libraries were sequenced with 2×150 bp reads (Illumina MiSeq). Depletion/enrichment of each construct was estimated as follows. For each sample, reads were normalized to the total reads mapped. The relative fraction of reads mapping to each intron was then estimated by dividing the numbers of normalized reads mapped to an intron by the total reads mapped in the sample. The standard deviation was calculated using the sample proportion P for each intron (σ=sqrt [P(1−P)/n]). A fold-change was calculated for each intron by dividing the proportion of the intron in the treated GCV samples by the fraction of the intron in the untreated samples. Error propagation was used to estimate the standard deviation. The final relative fold-changes were computed by normalizing fold-changes such that the fold-change of synMTERFD3i1-250 in the pilot screen was identical to the experimentally measured fold-change in a single-construct experiment (FIG. 2C, 100 μg/mL of GCV).
# [3] = tested on: SF3B1-mutant K562 cells; experiment: as above; conditions: genotype K700E (SF3B1+/K700E) K562; GCV 100 ug/mL; day 6; vector hPGK-PuroR-P2A-HSV-TK
# Description: as §1, §2, §3
molecule,measurement,setting,value
B1,excision / splicing of the synthetic intron (RT-PCR),[1],"excised in the context of endogenous SF3B1R625G, although less efficiently than for SF3B1K700E"
same,fold-change (estimated fold-change in intron abundance in gDNA),[2],1.034
same,fold-change (estimated fold-change in intron abundance in gDNA),[3],0.282
